These results are taken from patent US20220213456.

The subject of data set [1] is T1, OMNI-36 (Blastopirellula marina).
T1 sequence: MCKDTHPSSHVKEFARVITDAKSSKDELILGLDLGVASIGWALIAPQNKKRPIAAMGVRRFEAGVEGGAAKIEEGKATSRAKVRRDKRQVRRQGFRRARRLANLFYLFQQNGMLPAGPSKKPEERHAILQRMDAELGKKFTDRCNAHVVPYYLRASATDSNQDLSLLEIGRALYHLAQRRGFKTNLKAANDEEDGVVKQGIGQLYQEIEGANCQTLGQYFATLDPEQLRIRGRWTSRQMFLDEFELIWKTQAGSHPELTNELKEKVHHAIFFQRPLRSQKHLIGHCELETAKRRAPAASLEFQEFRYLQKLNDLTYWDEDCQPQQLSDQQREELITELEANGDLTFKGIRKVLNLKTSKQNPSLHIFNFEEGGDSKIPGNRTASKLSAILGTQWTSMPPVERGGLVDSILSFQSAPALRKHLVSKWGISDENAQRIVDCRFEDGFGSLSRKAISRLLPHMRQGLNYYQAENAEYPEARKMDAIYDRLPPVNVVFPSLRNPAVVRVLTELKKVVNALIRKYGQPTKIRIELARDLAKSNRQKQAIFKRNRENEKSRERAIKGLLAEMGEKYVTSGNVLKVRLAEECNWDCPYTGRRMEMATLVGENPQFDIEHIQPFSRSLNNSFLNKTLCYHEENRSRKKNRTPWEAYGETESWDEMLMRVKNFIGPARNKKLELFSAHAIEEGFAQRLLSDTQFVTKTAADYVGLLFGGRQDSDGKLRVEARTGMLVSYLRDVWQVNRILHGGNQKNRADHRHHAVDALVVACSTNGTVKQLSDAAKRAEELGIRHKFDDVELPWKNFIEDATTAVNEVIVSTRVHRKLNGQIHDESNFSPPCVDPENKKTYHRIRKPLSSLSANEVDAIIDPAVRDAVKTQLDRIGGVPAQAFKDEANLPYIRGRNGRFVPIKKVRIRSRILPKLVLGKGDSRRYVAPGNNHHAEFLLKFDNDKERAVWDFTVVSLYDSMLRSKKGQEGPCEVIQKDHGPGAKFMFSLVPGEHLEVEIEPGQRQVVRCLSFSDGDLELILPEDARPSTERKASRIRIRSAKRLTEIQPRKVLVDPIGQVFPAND
Kind of data set: cleavage_in_vitro. Particulars: TXTL; PAM NNYCCC; V1, V2 tested.

Data set [2] concerns T2, OMNI-53 (Clostridium sp. AF02-29).
T2 sequence: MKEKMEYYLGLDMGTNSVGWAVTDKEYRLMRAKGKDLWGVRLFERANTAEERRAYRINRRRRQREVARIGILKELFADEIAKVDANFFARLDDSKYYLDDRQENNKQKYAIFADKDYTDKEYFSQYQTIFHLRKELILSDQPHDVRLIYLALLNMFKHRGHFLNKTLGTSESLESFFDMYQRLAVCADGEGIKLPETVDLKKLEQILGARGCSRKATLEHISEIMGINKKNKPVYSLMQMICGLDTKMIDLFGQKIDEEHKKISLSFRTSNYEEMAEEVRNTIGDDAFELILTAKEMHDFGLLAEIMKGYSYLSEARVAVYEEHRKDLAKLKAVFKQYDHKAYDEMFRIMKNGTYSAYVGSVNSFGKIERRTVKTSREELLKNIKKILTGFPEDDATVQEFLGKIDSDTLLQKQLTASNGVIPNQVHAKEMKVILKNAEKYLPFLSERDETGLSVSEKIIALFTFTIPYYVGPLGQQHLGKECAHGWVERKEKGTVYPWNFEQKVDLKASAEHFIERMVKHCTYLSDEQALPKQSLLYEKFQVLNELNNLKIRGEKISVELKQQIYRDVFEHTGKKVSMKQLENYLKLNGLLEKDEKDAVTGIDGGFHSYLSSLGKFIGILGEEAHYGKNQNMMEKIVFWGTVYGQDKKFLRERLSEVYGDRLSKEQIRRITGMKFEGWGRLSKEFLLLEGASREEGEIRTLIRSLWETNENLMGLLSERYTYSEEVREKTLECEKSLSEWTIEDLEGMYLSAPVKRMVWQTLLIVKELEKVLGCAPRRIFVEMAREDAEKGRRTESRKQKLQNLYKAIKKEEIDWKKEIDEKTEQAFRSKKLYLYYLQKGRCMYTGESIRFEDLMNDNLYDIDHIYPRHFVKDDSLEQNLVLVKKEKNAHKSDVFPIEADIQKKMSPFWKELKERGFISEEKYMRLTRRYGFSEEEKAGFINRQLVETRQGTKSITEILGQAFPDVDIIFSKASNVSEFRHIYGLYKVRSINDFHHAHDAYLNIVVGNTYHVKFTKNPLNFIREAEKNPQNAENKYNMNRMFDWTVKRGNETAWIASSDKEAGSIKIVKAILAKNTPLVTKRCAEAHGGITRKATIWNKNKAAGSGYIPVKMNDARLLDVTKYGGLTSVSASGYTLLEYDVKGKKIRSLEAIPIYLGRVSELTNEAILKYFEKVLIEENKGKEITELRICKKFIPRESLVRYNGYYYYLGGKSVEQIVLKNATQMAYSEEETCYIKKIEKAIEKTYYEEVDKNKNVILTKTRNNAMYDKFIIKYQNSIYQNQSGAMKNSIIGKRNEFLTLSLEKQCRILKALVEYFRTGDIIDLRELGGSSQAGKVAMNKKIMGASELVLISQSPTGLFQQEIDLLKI
Briefly: cell_activity. Particulars: E. coli plasmid depletion; PAM NRTA.

Data set [3] shares this test system. Briefly: cleavage_in_vitro. To be noted: TXTL; PAM NRHR (specific NAWA).
Data set [4] concerns T3, OMNI-39 (Butyrivibrio sp. AC2005).
T3 sequence: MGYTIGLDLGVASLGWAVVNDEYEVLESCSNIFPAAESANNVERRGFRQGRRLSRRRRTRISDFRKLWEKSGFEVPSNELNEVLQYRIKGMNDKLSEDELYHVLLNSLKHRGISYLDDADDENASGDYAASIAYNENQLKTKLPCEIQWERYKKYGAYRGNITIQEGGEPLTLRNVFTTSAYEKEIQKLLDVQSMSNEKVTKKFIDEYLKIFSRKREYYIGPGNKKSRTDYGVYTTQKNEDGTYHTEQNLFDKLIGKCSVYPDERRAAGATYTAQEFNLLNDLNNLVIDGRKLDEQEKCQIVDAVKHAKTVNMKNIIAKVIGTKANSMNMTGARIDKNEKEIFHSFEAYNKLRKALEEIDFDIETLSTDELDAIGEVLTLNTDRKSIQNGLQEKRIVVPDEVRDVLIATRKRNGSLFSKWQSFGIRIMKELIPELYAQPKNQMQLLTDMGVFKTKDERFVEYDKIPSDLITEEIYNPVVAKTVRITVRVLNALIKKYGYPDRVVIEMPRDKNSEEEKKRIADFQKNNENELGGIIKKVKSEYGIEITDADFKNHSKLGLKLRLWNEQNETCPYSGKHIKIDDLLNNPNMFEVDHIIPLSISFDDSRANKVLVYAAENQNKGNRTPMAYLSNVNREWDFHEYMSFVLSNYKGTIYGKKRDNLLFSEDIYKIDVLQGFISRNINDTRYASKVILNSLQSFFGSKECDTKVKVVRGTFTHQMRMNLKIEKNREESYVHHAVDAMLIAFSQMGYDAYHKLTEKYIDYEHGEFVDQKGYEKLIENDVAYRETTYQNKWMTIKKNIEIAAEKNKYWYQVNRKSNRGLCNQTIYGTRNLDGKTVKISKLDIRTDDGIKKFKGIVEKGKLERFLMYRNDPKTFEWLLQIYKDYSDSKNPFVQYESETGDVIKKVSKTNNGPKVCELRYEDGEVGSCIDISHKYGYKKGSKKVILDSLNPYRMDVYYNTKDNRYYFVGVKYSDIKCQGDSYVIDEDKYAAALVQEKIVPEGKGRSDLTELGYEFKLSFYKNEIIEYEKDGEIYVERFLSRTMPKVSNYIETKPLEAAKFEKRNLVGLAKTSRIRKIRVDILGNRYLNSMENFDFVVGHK
Kind of data set: cell_activity. Particulars: E. coli plasmid depletion; PAM NNGYAD (specific NNGYAA).

Data set [5] shares this test system. Kind of data set: cleavage_in_vitro. To be noted: TXTL; PAM NNGHAD (specific NNGYAA).
Data set [6] has as its system T4, OMNI-40 (bacterium LF-3).
T4 sequence: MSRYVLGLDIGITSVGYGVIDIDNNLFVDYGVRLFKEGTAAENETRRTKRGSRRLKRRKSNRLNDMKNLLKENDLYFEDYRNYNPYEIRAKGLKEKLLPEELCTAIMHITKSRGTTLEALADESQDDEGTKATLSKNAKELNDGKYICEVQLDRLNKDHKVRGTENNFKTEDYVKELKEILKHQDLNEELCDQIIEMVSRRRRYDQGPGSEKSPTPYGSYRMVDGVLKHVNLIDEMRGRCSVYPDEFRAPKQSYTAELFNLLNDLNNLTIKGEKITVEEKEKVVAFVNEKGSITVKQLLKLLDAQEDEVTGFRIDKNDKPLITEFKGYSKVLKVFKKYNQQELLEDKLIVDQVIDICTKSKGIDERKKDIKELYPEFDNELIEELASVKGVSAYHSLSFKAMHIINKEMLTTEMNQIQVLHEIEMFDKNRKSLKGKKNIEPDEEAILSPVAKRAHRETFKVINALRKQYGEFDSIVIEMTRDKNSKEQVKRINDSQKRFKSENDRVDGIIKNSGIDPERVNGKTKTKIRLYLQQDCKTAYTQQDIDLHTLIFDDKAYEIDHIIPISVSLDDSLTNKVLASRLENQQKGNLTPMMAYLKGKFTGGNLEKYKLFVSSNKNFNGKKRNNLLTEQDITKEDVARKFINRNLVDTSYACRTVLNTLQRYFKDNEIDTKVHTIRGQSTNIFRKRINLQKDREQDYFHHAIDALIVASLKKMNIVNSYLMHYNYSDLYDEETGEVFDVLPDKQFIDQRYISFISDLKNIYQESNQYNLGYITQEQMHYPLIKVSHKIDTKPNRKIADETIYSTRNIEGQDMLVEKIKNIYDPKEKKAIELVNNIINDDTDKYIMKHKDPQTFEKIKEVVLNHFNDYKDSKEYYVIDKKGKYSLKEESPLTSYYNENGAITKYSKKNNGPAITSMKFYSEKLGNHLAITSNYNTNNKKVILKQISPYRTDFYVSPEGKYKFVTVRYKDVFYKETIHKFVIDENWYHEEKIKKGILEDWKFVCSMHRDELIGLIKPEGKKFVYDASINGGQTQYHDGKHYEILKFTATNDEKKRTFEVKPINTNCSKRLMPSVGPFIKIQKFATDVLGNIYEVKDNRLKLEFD
Briefly: cell_activity. To be noted: E. coli plasmid depletion; PAM NYGRV (specific NYGAV).

Data set [7] deals with T4, OMNI-40 (bacterium LF-3). Briefly: cleavage_in_vitro. Particulars: TXTL; PAM NYGRV.

Turning to “GGAAGAGCAGAGCCUUGGUCUCGCUGUGGCUUGGAGGGAAUCGUGAAAACGAUUGCUUCGCAAGUCAUAGUAAAGCAAUAGUCAGCGAAAGGUUUGCUCACGGAGCAUUCCGUCGAGUACCCUUUGACGCCUCCCAGCGGGGCGUCUUUUUUU / GGAAGAGCAGAGCCTTGGTCTCNNNNNNNN / NNNNNNNNGAGACCAAGGCTCTGCTCTTCC [OMNI-36 T2 sgRNA V1 ; pbPOS T2 protospacer 8N PAM library]”, in data set [1], the activity (1-depletion score) came to 0.99. For “GGAAGAGCAGAGCCUUGGUCUCGUUUGAGAACCAUGGAAACAUGGUGAGUGCAAAUAAGGAUUAUCCGAAAUUGUAUGCCCGCAUUGUGCGGCAAUAAAAAGGCUCGAAAGAGUCUUUUU / GGAAGAGCAGAGCCTTGGTCTCNNNNNNNN / NNNNNNNNGAGACCAAGGCTCTGCTCTTCC [OMNI-53 T2 sgRNA V1 ; pbPOS T2 protospacer 8N PAM library]”, the activity (1-depletion score) in data set [2] is 1; in data set [3], 0.97. Consider “GGAAGAGCAGAGCCUUGGUCUCGUUUUAGUACCUAGAGAAAGAAAUUUCUUUAGACCUACUAAAAUAAGGCUUUAUGCCGAGAUUAAAGGAUGCCGACGGGCAUCCUUUUUU / GGAAGAGCAGAGCCTTGGTCTCNNNNNNNN / NNNNNNNNGAGACCAAGGCTCTGCTCTTCC [OMNI-39 T2 sgRNA V2 ; pbPOS T2 protospacer 8N PAM library]”, for which the activity (1-depletion score) in data set [4] is 0.99; in data set [5], 0.95. For the sequence “GGAAGAGCAGAGCCUUGGUCUCGUUUUGUUACCAUAUGAUUGAAAAUUUAUAUGACCUAACAAAACAAGGGUUUAUCCCGGACUCGGCUCUUCGGAGCCUUUUU / GGAAGAGCAGAGCCTTGGTCTCNNNNNNNN / NNNNNNNNGAGACCAAGGCTCTGCTCTTCC [OMNI-40 T2 sgRNA V2 ; pbPOS T2 protospacer 8N PAM library]”, the activity (1-depletion score) with OMNI-40 (bacterium LF-3) [6] is 0.95; with OMNI-40 (bacterium LF-3) [7], 0.97.
